Results on three substances are retold here after patent publication US20140112919A1.

Assay [1] deals with rat anti hIL-10 mAb 12G8. The experiment in a line: competitive ECLA (IGEN): unlabeled IL-10 titrated against hIL-10-biotin for binding to rat 12G8.
The target in assay [2] is T1, recombinant hIL-10Ra: FLAG-tagged protein (human) (UniProt Q13651).
T1 sequence: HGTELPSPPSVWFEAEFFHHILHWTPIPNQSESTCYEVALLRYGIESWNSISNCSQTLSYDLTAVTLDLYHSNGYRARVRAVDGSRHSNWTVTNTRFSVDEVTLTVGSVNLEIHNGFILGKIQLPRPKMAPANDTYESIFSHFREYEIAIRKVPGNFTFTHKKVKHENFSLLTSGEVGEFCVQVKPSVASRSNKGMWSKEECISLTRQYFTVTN
The experiment in a line: competitive ECLA (IGEN): unlabeled IL-10 titrated against hIL-10-biotin for binding to FLAG-tagged hIL-10Ra.

Sequence of recombinant cyno IL-10 (P79338 19-178 limits assumed): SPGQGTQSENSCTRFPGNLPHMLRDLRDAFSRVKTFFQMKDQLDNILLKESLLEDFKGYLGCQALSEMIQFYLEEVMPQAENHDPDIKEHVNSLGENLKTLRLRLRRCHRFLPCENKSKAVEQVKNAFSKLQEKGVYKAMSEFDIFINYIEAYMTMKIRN

A word on the IC50: it is the concentration that gives 50% inhibition. In the case of “recombinant human IL-10-monomer (from UniProt P22301) (ligand)”, the values for the IC50 in assay [1] and in assay [2] were 7.1 nM and 7.2 nM, respectively.

Regarding “recombinant human IL-10 (from UniProt P22301) (ligand)”, the IC50 worked out at 4.7 nM in assay [1] and 2.9 nM in assay [2].

Regarding “recombinant cyno IL-10 (from UniProt P79338) (ligand)”, the results for the IC50 in assay [1] and in assay [2] were 6.6 nM and 17.6 nM, respectively.
